Test results from US20040086521A1, “Method for the identification of antigenic peptides” (priority 2002, published 2004).

B1: synthetic peptide with the amino acid sequence KPGKTKTIVYQRGILLPQ (influenza hemagglutinin epitope, strain B/Yamanashi/166/98) (peptide)
peptide: KPGKTKTIVYQRGILLPQ

Tests used:
DRB5*0101 = DRB5*0101 (Homo sapiens, UniProt P01903+Q30154); assay: MHC peptide binding studies with synthetic peptide; conditions: MHC peptide binding study
DRB1*0101 = DRB1*0101 (Homo sapiens, UniProt P01903+P01911, A100R/D57E/F55L/F60I/F76Y/I96L/L162R/M171V/P40L/Q125E/R42F/V115G/Y59C); assay: MHC peptide binding studies with synthetic peptide; conditions: MHC peptide binding study
DRB1*0401 = DRB1*0401 (Homo sapiens, UniProt P01903+P01911, A100K/A169T/F76Y/I96L/K127E/L162R/M171V/N62H/P40V/Q125Y/R42H/S133A/S149N/S66Y/V115G/V209L/W38E); assay: MHC peptide binding studies with synthetic peptide; conditions: MHC peptide binding study
HLA-DR allele DRB5*0101 = HLA-DR allele DRB5*0101 (human); assay: MHC peptide binding study with synthetic peptide
HLA-DR allele DRB1*0101 = HLA-DR allele DRB1*0101 (human); assay: MHC peptide binding study with synthetic peptide
HLA-DR allele DRB1*0401 = HLA-DR allele DRB1*0401 (human); assay: MHC peptide binding study with synthetic peptide

Molecule	binding capacity to allele DRB5*0101 (DRB5*0101)	binding capacity to allele DRB1*0101 (DRB1*0101)	binding capacity to allele DRB1*0401 (DRB1*0401)	binding result (HLA-DR allele DRB5*0101)	binding result (HLA-DR allele DRB1*0101)	binding result (HLA-DR allele DRB1*0401)
KPGKTKTIVYQRGILLPQ	confirmed the binding capacity	confirmed the binding capacity	revealed the same	–	–	–
B1	–	–	–	binds	binds	binds
